# ± gives the uncertainty stated by the source.
# Assay: self-splicing fitness, log relative to wild type (ln ratio); higher = more splicing; Tetrahymena group I intron in knt gene, E. coli kanamycin selection, DiMSum; sequences stand for … in CUCUCU…GGAGGGAAAAGUUAUCAGGCAUGCACCUGGUAGCUAGUCUUUAAACCAAUAGAUUGCAUCGGUUUAAAAGGCAAGACCGUCAAAUUGCGGGAAAGGGGUCAACAGCCGUUCAGUACCAAGUCUCAGGGGAAACUUUGAGAUGGCCUUGCAAAGGGUAUGGUAAUAAGCUGACGGACAUGGUCCUAACCACGCAGCCAAGUCCUAAGUCAACAGAUCUUCUGUUGAUAUGGAUGCAGUUCACAGACUAAAUGUCGGUCGGGGAAGAUGUAUUCUUCUCAUAAGAUAUAGUCGGACCUCUCCUUAAUGGGAGCUAGCGGAUGAAGUGAUGCAACACUGGAGCCGCUGGGAACUAAUUUGUAUGCGAAAGUAUAUUGAUUAGUUUUGGAGUACUCGUGGUCG
# Outline: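 Colonies from six replicate transformations of E. coli BL21(DE3) were pooled and amplicon-sequenced on an Illumina HiSeq 2500. The library placed an intron with all eight P1ex-region nucleotides randomised inside the knt kanamycin-resistance gene on pET-22b(+), and cells grew overnight at 37°C or 30°C on LB agar with or without 25 μg/mL kanamycin (plus 100 μg/mL carbenicillin, 50 μM IPTG, 0.2% rhamnose). Fitness is the DiMSum error-weighted combination of wild-type-normalised replicate fold changes, kanamycin versus none.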
Sequence,self-splicing fitness (ln) (30 °C),self-splicing fitness (ln) (37 °C)
UGGCAGCAAUAUUACGAACC,-1.66 ± 0.15,-0.775 ± 0.2
UGGCAGCAAUAUUACGAAUC,-2.3 ± 0.25,
UGGCAGCAAUAUUACGACGC,,-1.72 ± 0.24
UGGCAGCAAUAUUACGCACA,-1.24 ± 0.11,-0.127 ± 0.12
UGGCAGCAAUAUUACGCACC,-2.36 ± 0.22,-1.37 ± 0.25
UGGCAGCAAUAUUACGCAUC,-1.93 ± 0.18,-1.65 ± 0.16
UGGCAGCAAUAUUACGCUAG,-1.41 ± 0.077,-0.514 ± 0.11
UGGCAGCAAUAUUACGCUCU,-2.8 ± 0.2,-1.37 ± 0.16
UGGCAGCAAUAUUACGGCUA,-0.191 ± 0.15,-0.128 ± 0.19
UGGCAGCAAUAUUACGGGAC,-2.88 ± 0.45,-2.37 ± 0.49
UGGCAGCAAUAUUACGGGUA,-0.841 ± 0.11,0.0742 ± 0.11
UGGCAGCAAUAUUACGGGUU,-3.09 ± 0.14,-2.45 ± 0.14
UGGCAGCAAUAUUACGUACC,-0.627 ± 0.17,-0.885 ± 0.23
UGGCAGCAAUAUUACGUAGA,-0.926 ± 0.084,-0.264 ± 0.094
UGGCAGCAAUAUUACGUAGG,-0.869 ± 0.092,-0.975 ± 0.14
UGGCAGCAAUAUUACGUGGG,-2.8 ± 0.1,-2.02 ± 0.11
UGGGAGCAAUAUUACGACAA,-2.75 ± 0.34,-0.982 ± 0.3
UGGGAGCAAUAUUACGAGUC,,-1.83 ± 0.47
UGGGAGCAAUAUUACGAUUA,-2.17 ± 0.22,-2.1 ± 0.29
UGGGAGCAAUAUUACGAUUC,-4.38 ± 0.27,-2.41 ± 0.21
UGGGAGCAAUAUUACGCAUA,-1.98 ± 0.27,-1.22 ± 0.22
UGGGAGCAAUAUUACGCAUG,-3.28 ± 0.35,-0.201 ± 0.22
UGGGAGCAAUAUUACGGCGG,-2.86 ± 0.4,-1.23 ± 0.46
UGGGAGCAAUAUUACGGGCC,-2.63 ± 0.32,-1.92 ± 0.35
UGGGAGCAAUAUUACGGGGU,-1.76 ± 0.33,-1.7 ± 0.35

Sequence,self-splicing fitness (ln) (30 °C),self-splicing fitness (ln) (37 °C)
UGGGAGCAAUAUUACGGUGU,-2.52 ± 0.45,-1.9 ± 0.37
UGGGAGCAAUAUUACGUAGC,-3.22 ± 0.27,
UGGGAGCAAUAUUACGUAUC,-3.59 ± 0.39,-2.56 ± 0.33
UGGGAGCAAUAUUACGUCCC,-3.01 ± 0.4,-1.84 ± 0.41
UGGGAGCAAUAUUACGUCGG,-0.491 ± 0.24,
UGGGAGCAAUAUUACGUUAG,-3.58 ± 0.32,-2.13 ± 0.23
UGGGAGCAAUAUUACGUUCU,-2.95 ± 0.29,-2.35 ± 0.32
UGGUAGCAAUAUUACGAAAG,-3.06 ± 0.26,
UGGUAGCAAUAUUACGAACU,-0.279 ± 0.12,0.0176 ± 0.18
UGGUAGCAAUAUUACGACCA,-1.07 ± 0.18,-1.02 ± 0.2
UGGUAGCAAUAUUACGACCC,0.0232 ± 0.27,-0.576 ± 0.36
UGGUAGCAAUAUUACGACUA,-0.227 ± 0.16,-0.296 ± 0.2
UGGUAGCAAUAUUACGAGUA,-0.457 ± 0.19,-0.963 ± 0.2
UGGUAGCAAUAUUACGAUGG,-2.44 ± 0.15,-1.1 ± 0.17
UGGUAGCAAUAUUACGAUUU,-1.14 ± 0.14,-0.866 ± 0.14
UGGUAGCAAUAUUACGCCAU,,-1.09 ± 0.48
UGGUAGCAAUAUUACGCCUA,0.144 ± 0.11,0.464 ± 0.12
UGGUAGCAAUAUUACGCGCU,-2.58 ± 0.18,-1.31 ± 0.18
UGGUAGCAAUAUUACGCUCU,-2.22 ± 0.2,-1.31 ± 0.24
UGGUAGCAAUAUUACGCUUA,-0.955 ± 0.18,-0.553 ± 0.22
UGGUAGCAAUAUUACGGUAG,-2.53 ± 0.2,-0.912 ± 0.14
UGGUAGCAAUAUUACGGUUA,-0.381 ± 0.12,0.439 ± 0.15
UGGUAGCAAUAUUACGUCGC,-3.78 ± 0.21,-2.88 ± 0.19
UGGUAGCAAUAUUACGUCGU,-2.83 ± 0.15,-1.59 ± 0.16
UGGUAGCAAUAUUACGUGAA,-1.96 ± 0.14,-1.57 ± 0.15

Sequence,self-splicing fitness (ln) (30 °C),self-splicing fitness (ln) (37 °C)
UGGUAGCAAUAUUACGUGCU,-2 ± 0.13,-1.18 ± 0.16
UGGUAGCAAUAUUACGUUAA,-3.27 ± 0.21,-1.78 ± 0.17
UGUAAGCAAUAUUACGAAUU,-2.57 ± 0.25,-1.64 ± 0.19
UGUAAGCAAUAUUACGACCA,0.386 ± 0.12,0.0758 ± 0.19
UGUAAGCAAUAUUACGACUA,0.00851 ± 0.12,0.0364 ± 0.14
UGUAAGCAAUAUUACGCACC,-0.744 ± 0.36,0.286 ± 0.37
UGUAAGCAAUAUUACGCCCA,-0.177 ± 0.18,0.0098 ± 0.2
UGUAAGCAAUAUUACGCUCU,0.793 ± 0.47,-0.974 ± 0.45
UGUAAGCAAUAUUACGCUGU,-3.43 ± 0.18,-2.07 ± 0.18
UGUAAGCAAUAUUACGGACA,-0.174 ± 0.16,0.153 ± 0.23
UGUAAGCAAUAUUACGGGCC,-2.87 ± 0.41,-1.23 ± 0.41
UGUAAGCAAUAUUACGGGGG,-3.46 ± 0.22,-1.88 ± 0.21
UGUAAGCAAUAUUACGGUCU,-0.465 ± 0.089,-0.33 ± 0.11
UGUAAGCAAUAUUACGGUUC,,-2.92 ± 0.31
UGUAAGCAAUAUUACGUAAC,-2.22 ± 0.15,-2.91 ± 0.4
UGUAAGCAAUAUUACGUACA,-0.772 ± 0.098,-0.557 ± 0.16
UGUAAGCAAUAUUACGUCUC,,-1.56 ± 0.23
UGUAAGCAAUAUUACGUUGG,-2.14 ± 0.14,-1.46 ± 0.18
UGUCAGCAAUAUUACGAAGG,-1.69 ± 0.1,-0.409 ± 0.14
UGUCAGCAAUAUUACGACUC,-1.12 ± 0.14,0.256 ± 0.16
UGUCAGCAAUAUUACGCAAA,-0.635 ± 0.11,-0.0477 ± 0.12
UGUCAGCAAUAUUACGCAGA,-2.8 ± 0.25,-2.38 ± 0.5
UGUCAGCAAUAUUACGCGCA,-1.67 ± 0.13,-0.608 ± 0.14
UGUCAGCAAUAUUACGCGGU,-3.09 ± 0.26,-2.2 ± 0.29
UGUCAGCAAUAUUACGCGUU,-1.16 ± 0.072,-0.631 ± 0.083

Sequence,self-splicing fitness (ln) (30 °C),self-splicing fitness (ln) (37 °C)
UGUCAGCAAUAUUACGCUAA,-0.476 ± 0.071,0.355 ± 0.094
UGUCAGCAAUAUUACGCUGG,-4.05 ± 0.39,-2.19 ± 0.34
UGUCAGCAAUAUUACGCUUA,-0.0584 ± 0.077,0.408 ± 0.11
UGUCAGCAAUAUUACGGAUC,-1.89 ± 0.08,-0.775 ± 0.075
UGUCAGCAAUAUUACGGCCG,-0.69 ± 0.14,-0.658 ± 0.17
UGUCAGCAAUAUUACGGGCU,-1.7 ± 0.086,-1.4 ± 0.12
UGUCAGCAAUAUUACGGUAA,-0.649 ± 0.087,0.294 ± 0.1
UGUCAGCAAUAUUACGGUAU,-2.46 ± 0.14,-1.11 ± 0.12
UGUCAGCAAUAUUACGGUCA,-0.432 ± 0.071,0.606 ± 0.091
UGUCAGCAAUAUUACGGUCC,-0.381 ± 0.15,-0.567 ± 0.19
UGUCAGCAAUAUUACGGUCU,-0.529 ± 0.063,0.201 ± 0.083
UGUCAGCAAUAUUACGGUUA,-0.384 ± 0.089,0.239 ± 0.087
UGUCAGCAAUAUUACGUACU,-0.114 ± 0.058,0.497 ± 0.078
UGUCAGCAAUAUUACGUAUC,-2.16 ± 0.2,-1.68 ± 0.29
UGUGAGCAAUAUUACGAAGU,-1.67 ± 0.32,
UGUGAGCAAUAUUACGAAUG,-2.16 ± 0.1,-0.688 ± 0.097
UGUGAGCAAUAUUACGAUCG,-1.36 ± 0.1,0.456 ± 0.17
UGUGAGCAAUAUUACGAUUU,,-2.06 ± 0.27
UGUGAGCAAUAUUACGCAGG,-3.81 ± 0.42,-1.39 ± 0.27
UGUGAGCAAUAUUACGCCGC,-2.82 ± 0.34,-1.2 ± 0.48
UGUGAGCAAUAUUACGCGGG,,-2.31 ± 0.26
UGUGAGCAAUAUUACGCUCU,-1.26 ± 0.3,
UGUGAGCAAUAUUACGCUGU,-3.47 ± 0.18,-2.66 ± 0.19
UGUGAGCAAUAUUACGCUUA,-2.52 ± 0.27,-2.85 ± 0.27

# — the supplement of paper PMC7877785
